Reference: patent US6200577A, “Anti-herpesviral agents and assays therefor” (priority 1996, dated 2001)

Experiments:
[1] = target: T1, VP16/VP22trunc interaction (Human herpesvirus 1, UniProt P06492); assay: Co-purification of VP16 with VP22trunc on Ni-NTA resin in presence of peptides; assay type: binding, HSV-1; conditions: crude peptide at 2 mg/ml (about 1 mM), equal volume mixed with partially purified VP16 extract before VP22trunc
T1 construct: Plasmid pETVP16 was used to express full-length VP16 under the control of the T7 RNA polymerase promoter; made in house; host or cells: E. coli BL21(DE3)
T1 sequence (P06492 whole entry): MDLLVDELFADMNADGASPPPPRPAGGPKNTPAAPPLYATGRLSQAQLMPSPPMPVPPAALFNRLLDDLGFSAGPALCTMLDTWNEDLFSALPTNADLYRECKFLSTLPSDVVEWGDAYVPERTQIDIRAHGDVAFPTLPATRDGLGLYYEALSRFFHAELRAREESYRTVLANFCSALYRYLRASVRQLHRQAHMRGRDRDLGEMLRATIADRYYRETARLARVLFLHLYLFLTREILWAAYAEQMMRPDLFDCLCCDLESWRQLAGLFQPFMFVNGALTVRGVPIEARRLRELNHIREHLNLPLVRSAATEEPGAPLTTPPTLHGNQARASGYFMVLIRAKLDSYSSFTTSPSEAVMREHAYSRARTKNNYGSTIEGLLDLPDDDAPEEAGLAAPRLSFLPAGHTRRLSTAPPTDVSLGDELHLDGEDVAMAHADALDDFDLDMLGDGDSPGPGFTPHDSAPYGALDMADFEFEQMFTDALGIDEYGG
Description: FIG. 4 Co-elution of VP16 with VP22trunc from Ni-NTA resin. Partially purified extract containing VP16 was incubated in the absence of (lane 14) or presence of […] of VP22trunc (lanes 3 to 13). In lanes 3 to 12, an equal volume of the individual peptides at 2 mg/ml was added to the extract prior to VP22trunc. Peptides added to each reaction were as follows: lane 3, peptide A; lane 4, peptide B; lane 5, peptide C; lane 6, peptide D; lane 7, peptide E; lane 8, peptide F; lane 9, peptide G; lane 10, peptide H; lane 11, peptide I; lane 12, peptide J; lane 13, no peptide. Lanes 3 to 14 show the polypeptides eluted from Ni-NTA resin. Other samples were as follows: lane 1, partially purified VP16 extract, lane 2, purified VP16; lane 15, purified VP22trunc. Samples were electrophoresed on a 12% polyacrylamide gel and the apparent molecular weights of VP16 (65 KDa) and VP22trunc (16 KDa) are shown.
Co-purification of VP16 with VP22trunc on Ni-NTA Resin. Purified VP22trunc and a partially purified extract containing VP16, both in 20 mM Tris-HCl, pH8.0, 250 mM NaCl, were mixed at 4° C. for 15 to 30 minutes on a rotator. 50 μl of equilibrated Ni-NTA resin was added to each mixture and incubation was continued at 40C for a further 15 to 30 minutes. Resin was pelleted at 800 g for 1 minute and the supernatant (non-bound fraction) was removed. Resin was washed sequentially with 0.5 ml of 20 mM Tris-HCl, pH 8.0, 250 mM NaCl, 5 mM imidazole (twice) and 0.5 ml of 20 mM Tris-HCl, pH 8.0, 250 mM NaCl, 60 mM imidazole (four times). Bound protein was eluted by addition of 50 μl of boiling mix (160 mM Tris-HCl, pH 6.7, 2% SDS, 700 mM β-mercaptoethanol, 10% glycerol, 0.002% bromophenol blue) followed by heating to 100° C. for 5 minutes. For peptide studies, peptides were dissolved in 20 mM Tris-HCl, pH8.0, 250 mM NaCl at a concentration of 2 mg/ml. Incubation of peptides with partially purified VP16 extracts was performed at ambient temperature for 2 hours prior to the addition of VP22trunc. Samples were electrophoresed on denaturing polyacrylamide gels.
Results presented in Section 2(i) had shown that VP16 co-elutes from Ni-NTA resin in the presence of VP22trunc and it was concluded that this indicated interaction between these polypeptides. The ability of synthetic peptides to inhibit this interaction was analysed by mixing them individually with the partially purified VP16 extract prior to addition of VP22trunc. From the intensity of the 65 KDa species in the crude extract (FIG. 4, lane 2), it was estimated that the concentration of VP16 was approximately […]. To ensure that experiments were performed in an excess of peptide, peptides were prepared at a concentration of 2 mg/ml (about 1 mM) and equal volumes of peptide and extract were mixed. This gave a relative molar ratio of VP16 to peptide of 1:300. However, it should be noted that certain peptides were not completely soluble (Table 1) and in those cases, the ratio would be reduced.

VP16 = target: T2, VP16 (Human herpesvirus 1, UniProt P06492); assay: ELISA of direct binding of VP16 to plate-coated peptides; parameters: species or system HSV-1; conditions: wells coated with peptide up to 500 μg/ml; VP16 1.6 μg/ml; FIG. 10
T2 construct: Plasmid pETVP16 was used to express full-length VP16 under the control of the T7 RNA polymerase promoter; made in house; host or cells: E. coli BL21(DE3)
T2 sequence (P06492 whole entry): as above
Description: FIG. 10 Binding of VP16 to peptides. Microtitre plates were coated with 5-fold dilutions of peptides ranging from 500 μg/ml to 1 μg/ml and blocked with PBS/10% NCS. VP16 was then added to a final concentration of 1.6 μg/ml and detected with LP1. The legend for the peptides added is shown to the right of the graph.
Dilutions of proteins in PBS were coated overnight onto flat bottomed micro-titre plates (Dynatech) at 37° C. and then blocked with either 2% BSA or 10% new-born calf serum (NCS) in PBS for 1 hour at 37° C. Specific binding of a second protein to the plate-bound protein was performed for 1.5-2 hours at ambient temperature. a Excess secondary protein was removed by washing four times with PBS, 0.3% Tween 20. Bound protein was detected by incubation for 1.5-2 hours with LP1 antibody in PBS, 1% gelatin or PBS, 2% NCS. The bound antibody was detected by incubation for 1 hour at ambient temperature with anti-mouse antibody conjugated to HRP (1:500) and visualised with Smg/ml enzyme substrate 2,2'-azino-bis(3-ethylbenzthiazoline-6-sulphonic acid) (ABTS; Sigma) in citrate-phosphate buffer containing 6 μl hydrogen peroxide in a total volume of 20 ml. Optical densities were measured on a Titertek Multiscan PLUS instrument.
To examine whether VP16 could bind directly to the peptides, wells were coated with each peptide (A-J) at a range of concentrations from […] to 500 μg/ml and the plate was then blocked with […]. […] Nonetheless, the data for peptides D and E implicate direct binding of these peptides to VP16 as the mechanism for inhibiting its interaction with VP22. Peptide H also was active in experiments which prevented gB binding to VP22trunc [Section 4 (iii)] and thus also forms an aspect of the invention.

[2] = Solubility of synthetic peptides in buffer; assay type: physicochemical; conditions: peptides dissolved in 20 mM Tris-HCl, pH 8.0, 250 mM NaCl; unpurified preparations
Description: Synthesis and Purification of Oligopeptides. Peptides were synthesised by continuous flow Fmoc chemistry (Atherton and Sheppard, 1989; McLean et al., 1991) and, where stated in the text, were purified by preparative reverse-phase HPLC (Owsianka et al., 1993). The Mr values of peptides were determined by fast atom bombardment mass spectrometry (M-Scan) and corresponded to the predicted values. Peptides were dissolved in 20 mM Tris-HCl, pH 8.0, 250 mM NaCl and centrifuged at 11,500 g for 1 minute prior to use. […] Precipitates were removed by centrifugation before use.

gB/VP22trunc binding = target: T3, gB/VP22trunc binding (Human herpesvirus 1, UniProt P10211); assay: Far Western analysis of peptide inhibition of GST-gB binding to VP22trunc; parameters: species or system HSV-1; conditions: peptide 250 μg/ml co-incubated with GST-gB 1.2 μg/ml; FIG. 12B
T3 construct: linked residues 798 to 904 of gB to the glutathione-S-transferase (GST) protein expressed by pGex2TNMCR; made in house; host or cells: GST-gB: E. coli DH5alpha; VP22trunc: E. coli BL21(DE3)
T3 sequence (P10211 798-904): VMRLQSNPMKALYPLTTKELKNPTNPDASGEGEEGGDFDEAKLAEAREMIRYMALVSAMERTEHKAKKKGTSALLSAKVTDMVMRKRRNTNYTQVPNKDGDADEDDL
Description: (B) Inhibition of binding of GST-gB (final concentration 1.2 μg/ml)and each of the following peptides at a final concentration of 250 μg/ml: lane 1, no peptide; lane 2, peptide A; lane 3, peptide B; lane 4, peptide C; lane 5, peptide D; lane 6, peptide E; lane 7, peptide F; lane 8, peptide G; lane 9, peptide H; lane 10, peptide I; lane 11, peptide J. Bound GST-gB was detected with anti-GST antibody.
Following electrophoresis, proteins were electrotransferred to either Hybond or ProBlott (Applied Biosystems) membrane and the membrane was incubated in renaturation buffer (50 mM Tris-HCl, pH 8.0, 150 mM NaCl, 10% glycerol, 1 mM DTT) at 4° C. for 5-6 hours.
For membranes probed with GST-gB, blocking was performed overnight in PBSA containing 1% non-fat dried milk and 0.05% Tween 20 at 4° C. Membranes were then washed twice in renaturation buffer (10 min/wash) prior to incubation with fusion protein (final concentration 0.5 μg/ml) in renaturation buffer containing 1% BSA. Incubation was again performed overnight at 4° C. Following washing with renaturation buffer (four times, 10 minutes/wash) and a brief rinse with blocking buffer, the membrane was incubated with anti-GST antibody in PBSA, 1% non-fat dried milk, 0.05% Tween 20 and 1% BSA for 1 hour at ambient temperature. After four washes with PBSA, 0.05% Tween 20 (10 minutes/wash), bound antibody was detected with secondary antibody (goat anti-rabbit IgG, whole molecule; Sigma) conjugated to Horse Radish Peroxidase (HRP) by incubating at room temperature for 45 minutes. Following four further washes with PBSA, 0.05% Tween 20, the secondary antibody was visualised by enhanced chemiluminescence.
Similar to the studies performed with inhibition of binding of VP16 to VP22, peptides A to J, which span residues 18 to 144 of VP22trunc, were used to examine whether gB binding could also be prevented (FIG. 12B).

Sequence: ITTIRVTVCEGKNLLQRANE [Peptide H]
- Co-elution of VP16 with VP22trunc from Ni-NTA resin after incubation with peptide [1]: does not prevent interaction with VP22
- Direct binding of VP16 to plate-coated peptide (ELISA) (VP16): evidence also for VP16 binding
- Solubility [2]: soluble
- Inhibition of GST-gB binding to VP22trunc (Far Western) (gB/VP22trunc binding): completely inhibited binding of gB
